Experimental data from article doi:10.1101/2025.08.18.670068 (2025).

Experiments:
Test in all cases: SPR
[1] = molecular target: soluble CCR8 analogue BM1
[2] = molecular target: soluble CCR8 analogue BM5
[3] = molecular target: soluble CCR8 analogue BM3
[4] = molecular target: soluble CCR8 analogue BM7
[5] = molecular target: soluble CCR8 analogue BM6

Kd [1]: 267 nM | Kd [2]: 629 nM | Kd [3]: 154 nM | Kd [4]: 252 nM | Kd [5]: 552 nM
B1: mAb1 in full length human IgG1 format (antibody, V domains shown)
VH: QSVEESGGRLVTPGTPLTLTCTVSGFSLSNYAMIWVRQAPGEGLEWVGTISLGGYTYYANWAKGRFTISKTSTTVDLKISSPTTEDTATYFCARARWSTDSAIYTYAFDPWGPGTLVTVSS
VL: AYDMTQTPASVEVAVGGTVTIKCQASQSISSYLSWYQQKPGQRPELLIYKASTLASGVSSRFKGSGSGTQFTLTISDLEAADAATYYCQQGYTSSNIDNIFGGGTEVVVK
